Assay results taken from US20200363410A1.

Legend:
[1] = biological target: biotinylated Ag85A (Rv3804c) polypeptide (M. tuberculosis H37Rv)
[2] = biological target: biotinylated Ag85B (Rv1886c) polypeptide (M. tuberculosis H37Rv) (UniProt A5U3Q3)
[3] = biological target: biotinylated MPT63 (Rv1926c) polypeptide (M. tuberculosis H37Rv)
[4] = biological target: biotinylated MPT64 (Rv1980c) polypeptide (M. tuberculosis H37Rv)
[5] = biological target: biotinylated MTC28 (Rv0040c) polypeptide (M. tuberculosis H37Rv)

streptavidin, sequence (P22629 37-163 limits assumed): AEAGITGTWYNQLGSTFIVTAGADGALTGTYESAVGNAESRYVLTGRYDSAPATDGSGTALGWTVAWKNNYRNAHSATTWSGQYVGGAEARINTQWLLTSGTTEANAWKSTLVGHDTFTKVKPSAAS

## streptavidin (from UniProt P22629 37-163)
[1]
  Extent of biotinylation (share of protein adsorbed on streptavidin beads): 99.9%
  Fold reduction in protein reactivity after adsorption: 4000 fold
[2]
  Extent of biotinylation (share of protein adsorbed on streptavidin beads): 99.9%
  Fold reduction in protein reactivity after adsorption: 1000 fold
[3]
  Extent of biotinylation (share of protein adsorbed on streptavidin beads): 99.9%
  Fold reduction in protein reactivity after adsorption: 1000 fold
[4]
  Extent of biotinylation (share of protein adsorbed on streptavidin beads): 99.8%
  Fold reduction in protein reactivity after adsorption: 500 fold
[5]
  Extent of biotinylation (share of protein adsorbed on streptavidin beads): 99.8%
  Fold reduction in protein reactivity after adsorption: 500 fold
